Results reported in US20080234198A1 (Eli Lilly, published 2008).
Where a chain is given by its changes, count along the chain named.

B1: P517 (peptide)
peptide: HSDAVFTEQYTXLRXQLAXXXYLQXIXXGGPSSGAPPPCC
modifications: C6-HSDAVFTEQY(OMe)TOrnLRAibQLAAbuAibOrnYLQAibIOrnOrnGGPSSGAPPPC(PEG20K)C(PEG20K)-NH2
B2: P513 (peptide)
peptide: B1 peptide with X19A, L23X, X25S
modifications: C6-HSDAVFTEQY(OMe)TOrnLRAibQLAAAibOrnYAibQSIOrnOrnGGPSSGAPPPC(PEG20K)C(PEG20K)-NH2
B3: P523 (peptide)
peptide: B1 peptide with X25S
modifications: C6-HSDAVFTEQY(OMe)TOrnLRAibQLAAbuAibOrnYLQSIOrnOrnGGPSSGAPPPC(PEG20K)C(PEG20K)-NH2
B4: P525 (peptide)
peptide: B1 peptide with L23X
modifications: C6-HSDAVFTEQY(OMe)TOrnLRAibQLAAbuAibOrnYAibQAibIOrnOrnGGPSSGAPPPC(PEG20K)C(PEG20K)-NH2
B5: P519 (peptide)
peptide: B1 peptide with X19A, L23X
modifications: C6-HSDAVFTEQY(OMe)TOrnLRAibQLAAAibOrnYAibQAibIOrnOrnGGPSSGAPPPC(PEG20K)C(PEG20K)-NH2
B6: P521 (peptide)
peptide: B1 peptide with L23X, X25S
modifications: C6-HSDAVFTEQY(OMe)TOrnLRAibQLAAbuAibOrnYAibQSIOrnOrnGGPSSGAPPPC(PEG20K)C(PEG20K)-NH2
B7: P454 (peptide)
peptide: HSDAVFTEQYTXLRXQVAAXXYLQSIXXXGGPSSGAPPPS
modifications: not fully specified; C6-HSDAVFTEQY(OMe)TOrnLRAibQVAAAibOrnYLQSIOrnK(WPEG40K)OrnGGPSSGAPPPS-NH2
B8: P505 (peptide)
peptide: B7 peptide with X28C, S40C
modifications: C6-HSDAVFTEQY(OMe)TOrnLRAibQVAAAibOrnYLQSIOrnC(PEG20K)OrnGGPSSGAPPPC(PEG20K)-NH2
B9: P499 (peptide)
peptide: B7 peptide with S40C
modifications: C6-HSDAVFTEQY(OMe)TOrnLRAibQVAAAibOrnYLQSIOrnK(CO(CH2)2SPEG20K)OrnGGPSSGAPPPC(PEG20K)-NH2

The binders below were run against T1, human VPAC2 receptor (human, UniProt P41587 24-438) (assay: cell-based or functional assay).
T1 sequence (looked up): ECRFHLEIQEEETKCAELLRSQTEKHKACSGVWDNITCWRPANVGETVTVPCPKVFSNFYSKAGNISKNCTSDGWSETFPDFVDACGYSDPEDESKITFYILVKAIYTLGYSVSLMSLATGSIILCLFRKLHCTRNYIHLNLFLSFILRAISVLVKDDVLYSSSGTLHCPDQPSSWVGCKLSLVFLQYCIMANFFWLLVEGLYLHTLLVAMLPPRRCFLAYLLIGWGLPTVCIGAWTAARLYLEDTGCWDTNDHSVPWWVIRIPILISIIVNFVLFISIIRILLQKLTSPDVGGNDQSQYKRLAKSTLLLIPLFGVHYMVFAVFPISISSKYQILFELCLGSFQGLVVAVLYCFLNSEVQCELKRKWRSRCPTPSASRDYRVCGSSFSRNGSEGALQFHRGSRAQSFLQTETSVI

Binder	Human VPAC2 Receptor: Alphascreen (EC50; nM) [nM]	Human VPAC2 Receptor: DiscoveRx (EC50; nM) [nM]
HSDAVFTEQYTXLRXQLAXXXYLQSCXXGGPSSGAPPPS (C6-HSDAVFTEQY(OMe)TOrnLRAibQLAAbuAibOrnYLQSC(PEG40K)OrnOrnGGPSSGAPPPS-NH2) [P543]	84.2	8.9
HSDAVFTEQYTXLRXQVAXXXYLQXIXXGGPSSGAPPPC (C6-HSDAVFTEQY(OMe)TOrnLRAibQVAAbuAibOrnYLQAibIOrnOrnGGPSSGAPPPC(PEG40K)-NH2) [P511]	7.6	
HSDAVFTEQYTXLRXQVCAXXYLQSIXXGGPSSGAPPPS (C6-HSDAVFTEQY(OMe)TOrnLRAibQVC(PEG40K)AAibOrnYLQSIOrnOrnGGPSSGAPPPS-NH2) [P478]	49.9	
HSDAVFTEQYTXLRXQVAAXXYLCSIXXGGPSSGAPPPC (C6-HSDAVFTEQY(OMe)TOrnLRAibQVAAAibOrnYLC(PEG20K)SIOrnOrnGGPSSGAPPPC(PEG20K)-NH2) [P501]	131	
B1	7.5	
B2	28.9	
B3	5.8	
B4	25	
B5	30.3	
B6	22.1	
B7	59.9	
B8	40.5	
B9	57.7	

What follows are binders tested against T2, rat VPAC1 receptor (rat, UniProt P30083 31-459) (assay: cell-based or functional assay).
T2 sequence (looked up): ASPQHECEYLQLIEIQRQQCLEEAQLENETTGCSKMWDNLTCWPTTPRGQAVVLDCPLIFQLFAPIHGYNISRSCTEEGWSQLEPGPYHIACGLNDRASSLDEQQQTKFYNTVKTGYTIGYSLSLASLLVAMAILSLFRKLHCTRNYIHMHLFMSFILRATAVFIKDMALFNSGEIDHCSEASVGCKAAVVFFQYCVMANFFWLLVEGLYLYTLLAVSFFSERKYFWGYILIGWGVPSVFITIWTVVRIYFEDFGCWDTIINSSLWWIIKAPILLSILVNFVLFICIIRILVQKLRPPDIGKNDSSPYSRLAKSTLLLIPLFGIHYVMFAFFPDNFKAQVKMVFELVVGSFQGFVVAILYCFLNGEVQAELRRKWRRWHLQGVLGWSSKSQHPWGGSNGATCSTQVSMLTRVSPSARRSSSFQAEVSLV

Binder	Rat VPAC1 Receptor: DiscoveRx: (EC50; nM) [nM]
HSDAVFTEQYTXLRXQLAXXXYLQSCXXGGPSSGAPPPS (C6-HSDAVFTEQY(OMe)TOrnLRAibQLAAbuAibOrnYLQSC(PEG40K)OrnOrnGGPSSGAPPPS-NH2) [P543]	355
HSDAVFTEQYTXLRXQVAXXXYLQXIXXGGPSSGAPPPC (C6-HSDAVFTEQY(OMe)TOrnLRAibQVAAbuAibOrnYLQAibIOrnOrnGGPSSGAPPPC(PEG40K)-NH2) [P511]	61.9
HSDAVFTEQYTXLRXQVCAXXYLQSIXXGGPSSGAPPPS (C6-HSDAVFTEQY(OMe)TOrnLRAibQVC(PEG40K)AAibOrnYLQSIOrnOrnGGPSSGAPPPS-NH2) [P478]	2050
HSDAVFTEQYTXLRXQVAAXXYLCSIXXGGPSSGAPPPC (C6-HSDAVFTEQY(OMe)TOrnLRAibQVAAAibOrnYLC(PEG20K)SIOrnOrnGGPSSGAPPPC(PEG20K)-NH2) [P501]	> 1000
B1	92.4
B3	20.4
B4	1140
B6	602
B7	1230
B8	639
B9	804

Each binder was assayed against T3, rat VPAC2 receptor (rat, UniProt P35000 23-437) (assay: cell-based or functional assay).
T3 sequence (looked up): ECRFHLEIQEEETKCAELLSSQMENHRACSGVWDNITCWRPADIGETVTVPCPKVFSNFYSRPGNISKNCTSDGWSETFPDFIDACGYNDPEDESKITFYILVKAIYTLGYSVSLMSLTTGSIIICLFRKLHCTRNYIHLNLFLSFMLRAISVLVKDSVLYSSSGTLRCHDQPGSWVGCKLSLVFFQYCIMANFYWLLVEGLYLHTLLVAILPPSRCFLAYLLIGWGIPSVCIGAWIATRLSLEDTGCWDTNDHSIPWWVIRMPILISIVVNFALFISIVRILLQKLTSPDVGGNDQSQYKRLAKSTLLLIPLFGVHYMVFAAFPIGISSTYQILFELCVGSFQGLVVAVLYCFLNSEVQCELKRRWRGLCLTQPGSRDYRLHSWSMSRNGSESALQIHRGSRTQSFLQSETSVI

Binder	Rat VPAC2 Receptor: DiscoveRx: (EC50; nM) [nM]
HSDAVFTEQYTXLRXQLAXXXYLQSCXXGGPSSGAPPPS (C6-HSDAVFTEQY(OMe)TOrnLRAibQLAAbuAibOrnYLQSC(PEG40K)OrnOrnGGPSSGAPPPS-NH2) [P543]	101
HSDAVFTEQYTXLRXQVAXXXYLQXIXXGGPSSGAPPPC (C6-HSDAVFTEQY(OMe)TOrnLRAibQVAAbuAibOrnYLQAibIOrnOrnGGPSSGAPPPC(PEG40K)-NH2) [P511]	13.9
HSDAVFTEQYTXLRXQVCAXXYLQSIXXGGPSSGAPPPS (C6-HSDAVFTEQY(OMe)TOrnLRAibQVC(PEG40K)AAibOrnYLQSIOrnOrnGGPSSGAPPPS-NH2) [P478]	120
HSDAVFTEQYTXLRXQVAAXXYLCSIXXGGPSSGAPPPC (C6-HSDAVFTEQY(OMe)TOrnLRAibQVAAAibOrnYLC(PEG20K)SIOrnOrnGGPSSGAPPPC(PEG20K)-NH2) [P501]	272
B1	10
B3	5.3
B4	44
B6	33.1
B7	79.6
B8	42.6
B9	68.2

The binders below were run against T1, human VPAC2 receptor (assay: filter binding, VPAC2 cell membranes, displacement of 125I-VIP).
Experimental: Binding assays: Membrane prepared from a stable VPAC2 cell line (see Example 3) or from cells transiently transfected with human VPAC1 or PAC1 are used.
The assay plate is filled with 25 μL assay buffer, 25 μL membranes (2.5 μg) suspended in assay buffer, 25 μL agonist in assay buffer, and 25 μL tracer (about 40000 cpm) in assay buffer. The filled plate is incubated for 1 hour with shaking.
The transfer from assay plate to filter plate is conducted. The blocking buffer is aspirated by vacuum filtration and washed two times with flush buffer. 90 μL is transferred from the assay plate to the filter plate. The 90 μL transferred from assay plate is aspirated and washed three times with 200 μL flush buffer. The plastic support is removed. It is dried for 1 hour at 60° C. 30 μL Microscint is added. The count is performed.

Binder	IC50 [nM]
HSDAVFTEQYTXLRXQLAXXXYLQSCXXGGPSSGAPPPS (C6-HSDAVFTEQY(OMe)TOrnLRAibQLAAbuAibOrnYLQSC(PEG40K)OrnOrnGGPSSGAPPPS-NH2) [P543]	56.3
HSDAVFTEQYTXLRXQVAXXXYLQXIXXGGPSSGAPPPC (C6-HSDAVFTEQY(OMe)TOrnLRAibQVAAbuAibOrnYLQAibIOrnOrnGGPSSGAPPPC(PEG40K)-NH2) [P511]	7.2
HSDAVFTEQYTXLRXQVCAXXYLQSIXXGGPSSGAPPPS (C6-HSDAVFTEQY(OMe)TOrnLRAibQVC(PEG40K)AAibOrnYLQSIOrnOrnGGPSSGAPPPS-NH2) [P478]	30
HSDAVFTEQYTXLRXQVAAXXYLCSIXXGGPSSGAPPPC (C6-HSDAVFTEQY(OMe)TOrnLRAibQVAAAibOrnYLC(PEG20K)SIOrnOrnGGPSSGAPPPC(PEG20K)-NH2) [P501]	111
B1	3.7
B2	50.5
B3	4.8
B4	41.8
B5	51.6
B6	67.1
B7	36.6
B8	26.1
B9	34
